Source: article PMC9190012, “Heparin activation of protein Z-dependent protease inhibitor (ZPI) allosterically blocks protein Z activation through an extended heparin-binding site” (The Journal of Biological Chemistry, 2022)

Columns and labels:
Type in all cases: biochemical
FXa [1] = biological target: T1, FXa (Homo sapiens, UniProt P00742); experiment: Unaccelerated ZPI–FXa reactions: kinetics and stoichiometry of inhibition; details: for ka,app: absence of PZ, 2.5 mM CaCl2, pH 7.4, 25 °C
T1 construct: purchased Enzyme Research Laboratories
Method: (§1) Apparent second-order rate constants for unaccelerated and H50-accelerated ZPI–FXa reactions were measured in the absence and presence of the optimal H50 concentration under pseudo–first-order conditions by analyzing full ZPI–FXa reaction progress curves over the ZPI concentration range of 10 to 900 nM with ∼0.5 nM FXa. Full reaction progress curves were also measured for ZPI–FXa reactions in the presence of PZ equimolar with ZPI, 25 μM lipid, and 5 mM CaCl2, as a function of the ZPI concentration in the range of 10 to 40 nM. Identical reaction mixtures were quenched at varying reaction times with substrate, and the time course of protease inactivation was measured from the decrease in initial rates of substrate hydrolysis. The first-order rate of decrease in protease activity with time was computer fit by a single exponential decay function with a nonzero end point and kobs obtained from the fitted exponential decay constant. Apparent second-order association rate constants (ka,app) were obtained from the slopes of linear plots of kobs versus the ZPI concentration according to the equation, kobs=kd+ka,app × [ZPI]0
(§2) In which kd represents the rate constant for ZPI–FXa complex dissociation and [ZPI]o is the total ZPI concentration. kd was fixed at the experimentally determined value of 10^−4 s^−1 for WT and ZPI mutants as described ([18]).
(§3) Fixed concentrations of FXa (50–100 nM FXa) were reacted with increasing concentrations of ZPI, ranging from a approximately threefold to sevenfold molar excess, in the absence of cofactors or in the presence of either 1 μM H50 or PZ equimolar with ZPI, 25 μM lipid, and 5 mM CaCl2, in kinetics buffer at 25 °C in reaction volumes of 50 μl. After allowing sufficient time to reach a reaction end point, based on measured second-order associate rate constants (∼5–30 min), remaining proteolytic activity was measured by reacting an aliquot (5–20 μl) of the reaction mixtures with 1 ml of 100 μM Spectrozyme fXa (American Diagnostica) containing 50 μg/ml Polybrene and 5 mM EDTA and monitoring the rate of absorbance change at 405 nm. The apparent SI was determined from the fitted abscissa intercept of a linear plot of residual protease activity against the molar ratio of inhibitor to protease ([18]). Because the ZPI–PZ complex dissociates to a small extent over the reaction time, apparent SIs depend on the time of incubation. To correct for such complex dissociation, apparent SIs were multiplied by the factor, exp (−kd × t), where kd is the measured complex dissociation rate constant of 10^−4 s^−1 and t the fixed reaction time. Simulations verified the validity of this correction for small extents of dissociation. Reported SIs are average values of at least two independent measurements at different reaction times.

FXa [2] = biological target: T1, FXa; experiment: H50 heparin-accelerated ZPI–FXa reactions: kinetics and stoichiometry of inhibition; details: for SI / ka,app × SI / ka,app × SI relative to WT: 1 μM H50; for ka,app: 1 μM H50, 2.5 mM CaCl2, pH 7.4, 25 °C; for H50 rate enhancement: ratio of heparin-accelerated to unaccelerated ka,app × SI
Method: Heparin accelerating effects on the kinetics of ZPI–FXa reactions were evaluated as a function of heparin concentration under pseudo–first-order conditions (i.e., with a large molar excess of inhibitor over protease) by incubating reaction mixtures of 100 μl containing 70 nM ZPI and ∼0.5 nM FXa in the absence or presence of varying levels of H50 ranging from 10^−9 to 10^−4 M in 20 mM Tris buffer (pH 7.4), 0.1 M NaCl, 0.1% PEG 8000, 0.1 mg/ml BSA, and 2.5 mM CaCl2 at 25 °C for reaction times of 2 to 5 min. Reactions were quenched by adding 1 ml of 50 μM Pefafluor FXa substrate (Centerchem, Inc) containing 50 μg/ml polybrene and 5 mM EDTA. The initial linear rate of substrate hydrolysis was monitored at an excitation wavelength of 380 nm and an emission wavelength of 440 nm. The observed pseudo–first-order rate constant for reactions (kobs) was calculated from the equation, kobs=In([vo-v∞]/[vt-v∞])/t
where vt and v∞ are the initial velocities of protease hydrolysis of the substrate after reaction with ZPI for the fixed reaction time and after reaching the reaction end point, respectively, vo is the velocity measured in control reactions without ZPI, and t is the fixed reaction time. The dependence of kobs on heparin concentration was computer fit by nonlinear least squares analysis by the ternary complex bridging model equation ([10]).
as §1, §2
as §3, with “Simulations verified the validity of this correction for small extents of dissociation. Reported SIs are average values of at least two independent measurements at different reaction times.” left out

FXa [3] = biological target: T1, FXa; experiment: PZ-accelerated ZPI–FXa reactions: kinetics and stoichiometry of inhibition; details: for SI / ka,app × SI / ka,app × SI relative to WT: PZ-accelerated; for ka,app: equimolar PZ, 25 μM phospholipid, 5 mM CaCl2, pH 7.4, 25 °C; for PZ enhancement: ratio of PZ-accelerated to unaccelerated ka,app × SI
Method: as §1, §2, §3

T1 sequence (P00742 235-488 limits assumed): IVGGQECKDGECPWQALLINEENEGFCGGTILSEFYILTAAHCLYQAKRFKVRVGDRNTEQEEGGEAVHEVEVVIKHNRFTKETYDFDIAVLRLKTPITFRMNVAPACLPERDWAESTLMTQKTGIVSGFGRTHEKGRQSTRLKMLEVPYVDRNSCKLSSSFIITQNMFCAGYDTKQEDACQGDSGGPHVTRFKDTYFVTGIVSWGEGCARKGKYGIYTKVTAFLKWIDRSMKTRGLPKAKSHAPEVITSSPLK
T1 sequence (P00742 41-179 limits assumed): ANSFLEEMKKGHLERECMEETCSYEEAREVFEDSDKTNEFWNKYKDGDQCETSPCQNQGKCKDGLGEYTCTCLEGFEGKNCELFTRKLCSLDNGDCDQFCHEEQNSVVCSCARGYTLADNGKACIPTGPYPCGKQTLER

Molecule	SI (FXa [1]) [moles ZPI/mole FXa]	ka,app × SI (FXa [1])	ka,app × SI relative to WT (FXa [1])	ka,app (FXa [1])	SI (FXa [2]) [moles ZPI/mole FXa]	ka,app × SI (FXa [2])	ka,app × SI relative to WT (FXa [2])	ka,app (FXa [2])	H50 rate enhancement (FXa [2]) [fold]	SI (FXa [3]) [moles ZPI/mole FXa]	ka,app × SI (FXa [3])	ka,app × SI relative to WT (FXa [3])	ka,app (FXa [3])	PZ enhancement (FXa [3])
R305A: ZPI helix H site mutant (protein, UniProt Q9UK55 22-444, looked up, variant R305A) Protein Z-dependent protease …: LAPSPQSPETPAPQNQTSRVVQAPKEEEEDEQEASEEKASEEEKAWLMASRQQLAKETSNFGFSLLRKISMRHDGNMVFSPFGMSLAMTGLMLGATGPTETQIKRGLHLQALKPTKPGLLPSLFKGLRETLSRNLELGLTQGSFAFIHKDFDVKETFFNLSKRYFDTECVPMNFRNASQAKRLMNHYINKETRGKIPKLFDEINPETKLILVDYILFKGKWLTPFDPVFTEVDTFHLDKYKTIKVPMMYGAGKFASTFDKNFRCHVLKLPYQGNATMLVVLMEKMGDHLALEDYLTTDLVETWLANMKTRNMEVFFPKFKLDQKYEMHELLRQMGIRRIFSPFADLSELSATGRNLQVSRVLQRTVIEVDERGTEAVAGILSEITAYSMPPVIKVDRPFHFMIYEETSGMLLFLGRVVNPTLL	2.4 ± 0.2	1.8 ± 0.2 × 10^4 M^−1 s^−1	(1.1)	7.3 ± 0.4 × 10^3 M^−1 s^−1	1.8 ± 0.1	5.3 ± 0.9 × 10^5 M^−1 s^−1	(0.44)	2.9 ± 0.3 × 10^5 M^−1 s^−1	~29	3.3 ± 0.1	3.2 ± 0.4 × 10^7 M^−1 s^−1	(0.73)	9.8 ± 1.0 × 10^6 M^−1 s^−1	1778
K125A/R128A: ZPI mutant of helix D residues (protein, UniProt Q9UK55 22-444, looked up, variant K125A R128A) Protein Z-dependent protease …: LAPSPQSPETPAPQNQTSRVVQAPKEEEEDEQEASEEKASEEEKAWLMASRQQLAKETSNFGFSLLRKISMRHDGNMVFSPFGMSLAMTGLMLGATGPTETQIKRGLHLQALKPTKPGLLPSLFAGLAETLSRNLELGLTQGSFAFIHKDFDVKETFFNLSKRYFDTECVPMNFRNASQAKRLMNHYINKETRGKIPKLFDEINPETKLILVDYILFKGKWLTPFDPVFTEVDTFHLDKYKTIKVPMMYGAGKFASTFDKNFRCHVLKLPYQGNATMLVVLMEKMGDHLALEDYLTTDLVETWLRNMKTRNMEVFFPKFKLDQKYEMHELLRQMGIRRIFSPFADLSELSATGRNLQVSRVLQRTVIEVDERGTEAVAGILSEITAYSMPPVIKVDRPFHFMIYEETSGMLLFLGRVVNPTLL	1.7 ± 0.1	6.3 ± 0.3 × 10^3 M^−1 s^−1	(0.39)	3.7 ± 0.1 × 10^3 M^−1 s^−1	4.9 ± 0.2	5.6 ± 0.8 × 10^5 M^−1 s^−1	(0.47)	1.2 ± 0.1 × 10^5 M^−1 s^−1	~89	5.6 ± 0.1	2.9 ± 0.2 × 10^7 M^−1 s^−1	(0.66)	5.2 ± 0.2 × 10^6 M^−1 s^−1	4603
K308A: ZPI helix H site mutant (protein, UniProt Q9UK55 22-444, looked up, variant K308A) Protein Z-dependent protease …: LAPSPQSPETPAPQNQTSRVVQAPKEEEEDEQEASEEKASEEEKAWLMASRQQLAKETSNFGFSLLRKISMRHDGNMVFSPFGMSLAMTGLMLGATGPTETQIKRGLHLQALKPTKPGLLPSLFKGLRETLSRNLELGLTQGSFAFIHKDFDVKETFFNLSKRYFDTECVPMNFRNASQAKRLMNHYINKETRGKIPKLFDEINPETKLILVDYILFKGKWLTPFDPVFTEVDTFHLDKYKTIKVPMMYGAGKFASTFDKNFRCHVLKLPYQGNATMLVVLMEKMGDHLALEDYLTTDLVETWLRNMATRNMEVFFPKFKLDQKYEMHELLRQMGIRRIFSPFADLSELSATGRNLQVSRVLQRTVIEVDERGTEAVAGILSEITAYSMPPVIKVDRPFHFMIYEETSGMLLFLGRVVNPTLL	2.9 ± 0.2	1.7 ± 0.1 × 10^4 M^−1 s^−1	(1.1)	5.8 ± 0.1 × 10^3 M^−1 s^−1	2.2 ± 0.3	5.4 ± 0.9 × 10^5 M^−1 s^−1	(0.45)	2.4 ± 0.1 × 10^5 M^−1 s^−1	~32	2.7 ± 0.1	2.6 ± 0.1 × 10^7 M^−1 s^−1	(0.59)	9.5 ± 0.1 × 10^6 M^−1 s^−1	1524
R310A: ZPI helix H site mutant (protein, UniProt Q9UK55 22-444, looked up, variant R310A) Protein Z-dependent protease …: LAPSPQSPETPAPQNQTSRVVQAPKEEEEDEQEASEEKASEEEKAWLMASRQQLAKETSNFGFSLLRKISMRHDGNMVFSPFGMSLAMTGLMLGATGPTETQIKRGLHLQALKPTKPGLLPSLFKGLRETLSRNLELGLTQGSFAFIHKDFDVKETFFNLSKRYFDTECVPMNFRNASQAKRLMNHYINKETRGKIPKLFDEINPETKLILVDYILFKGKWLTPFDPVFTEVDTFHLDKYKTIKVPMMYGAGKFASTFDKNFRCHVLKLPYQGNATMLVVLMEKMGDHLALEDYLTTDLVETWLRNMKTANMEVFFPKFKLDQKYEMHELLRQMGIRRIFSPFADLSELSATGRNLQVSRVLQRTVIEVDERGTEAVAGILSEITAYSMPPVIKVDRPFHFMIYEETSGMLLFLGRVVNPTLL	2.7 ± 0.2	1.0 ± 0.2 × 10^4 M^−1 s^−1	(0.62)	3.8 ± 0.3 × 10^3 M^−1 s^−1	1.9 ± 0.2	3.5 ± 0.5 × 10^5 M^−1 s^−1	(0.29)	1.8 ± 0.1 × 10^5 M^−1 s^−1	~35	2.9 ± 0.2	2.7 ± 0.6 × 10^7 M^−1 s^−1	(0.61)	9.4 ± 1.4 × 10^6 M^−1 s^−1	2700
